Assay [1] has as its target σ^R (sigma factor SigR) from Streptomyces coelicolor, residues 5-227, tagless (Streptomyces coelicolor) (UniProt Q7AKG9). The experiment in a line: ITC; RsrA mutants (values in Supplementary Table 1); 35 °C, 50 mM Tris pH 7.5, 100 mM NaCl, 2 mM DTT; direct titration for weaker binding mutants (10 μM RsrA in the cell, 100 μM σ^R in the syringe); RsrA preincubated with ZnCl2 and buffer exchanged where zinc was included.

Assay [2] deals with σR (residues 5-227) (Streptomyces coelicolor) (UniProt Q7AKG9). The assay can be described thus: ITC; with zinc (+), RsrA preincubated with 1 mM ZnCl2 and buffer exchanged; direct titration for weaker binding mutants (methods: 10 μM RsrA in the cell, 100 μM σR in the syringe); 35 °C, 50 mM Tris pH 7.5, 100 mM NaCl, 2 mM DTT; single binding site model.

A value given as a limit tells only on which side of the number the result lay.

Substance “RsrA Val54Ala Leu57Ala (from UniProt Q7AKG8 1-105) (natural protein)” came in with a fold weakening of binding to σ^R against RsrA in assay [1] of more than 100 fold.

In assay [1], “RsrA Val75Ala Leu79Ala (from UniProt Q7AKG8 1-105) (natural protein)” came in with a fold weakening of binding to σ^R against RsrA of more than 100 fold.

Regarding “RsrA* C41S (from UniProt Q7AKG8 4-105) (natural protein)”, in assay [2], the Kd was 557 nM.

Source of the values: PMC4960319.
